Measured values taken from patent US20110318339A1 (FABRUS, published 2011).
Where a chain is given by its changes, count along the chain named. Names may count otherwise.

B1: Fab VH1-46_IGHD6-6*01_IGHJ1*01 S102A/S103P/S104F/H111F & L6_IGKJ1*01 (Fab, V domains shown)
VH: QVQLVQSGAEVKKPGASVKVSCKASGYTFTSYYMHWVRQAPGQGLEWMGIINPSGGSTSYAQKFQGRVTMTRDTSTSTVYMELSSLRSEDTAVYYCAREEYAPFSAEYFQFWGQGTLVTVSS
VL: not shown
notes: Fab made in E. coli: VH on CH1 with His6 and Flag tags (Plasmid A), VL on kappa CL (Plasmid C); also called H: APFF & L: wt
B2: Fab VH1-46_IGHD6-6*01_IGHJ1*01 S102A/S103P/S104F/H111F I51T/N52L/P53A/S54T/G56H & L6_IGKJ1*01 (Fab, V domains shown)
VH: B1 VH with I51T, N52L, P53A, S54T, G56H
VL: not shown
notes: Fab made in E. coli: VH on CH1 with His6 and Flag tags (Plasmid A), VL on kappa CL (Plasmid C); also called H: APFF TLATH & L: wt
B3: Fab VH1-46_IGHD6-6*01_IGHJ1*01 S102A/S103P/S104F/H111F I51T/N52V & L6_IGKJ1*01 (Fab, V domains shown)
VH: B1 VH with I51T, N52V
VL: not shown
notes: Fab made in E. coli: VH on CH1 with His6 and Flag tags (Plasmid A), VL on kappa CL (Plasmid C); also called H: APFF TV & L: wt; APFF I51T/N52V
B4: Fab VH1-46_IGHD6-6*01_IGHJ1*01 S102A/S103P/S104F/H111F & L6_IGKJ1*01 S28N/S30D/S31H N53H (Fab, V domains shown)
VH: B1 VH
VL: EIVLTQSPATLSLSPGERATLSCRASQNVDHYLAWYQQKPGQAPRLLIYDASHRATGIPARFSGSGSGTDFTLTISSLEPEDFAVYYCQQRSNWPPWTFGQGTKVEIKR
notes: Fab made in E. coli: VH on CH1 with His6 and Flag tags (Plasmid A), VL on kappa CL (Plasmid C); also called H: APFF & L: NDH N53H
B5: Fab VH1-46_IGHD6-6*01_IGHJ1*01 S102A/S103P/S104F/H111F I51E/N52L/S54T/G56H & L6_IGKJ1*01 (Fab, V domains shown)
VH: B1 VH with I51E, N52L, S54T, G56H
VL: not shown
notes: Fab made in E. coli: VH on CH1 with His6 and Flag tags (Plasmid A), VL on kappa CL (Plasmid C); also called H: APFF ELTH & L: wt
B6: Fab VH1-46_IGHD6-6*01_IGHJ1*01 S102A/S103P/S104F/H111F N52L/S54T/G56H & L6_IGKJ1*01 (Fab, V domains shown)
VH: B1 VH with N52L, S54T, G56H
VL: not shown
notes: Fab made in E. coli: VH on CH1 with His6 and Flag tags (Plasmid A), VL on kappa CL (Plasmid C); also called H: APFF LTH & L: wt
B7: Fab VH1-46_IGHD6-6*01_IGHJ1*01 S102A/S103P/S104F/H111F & L6_IGKJ1*01 S28N/S30D/S31H S52T (Fab, V domains shown)
VH: B1 VH
VL: B4 VL with S52T, H53N
notes: Fab made in E. coli: VH on CH1 with His6 and Flag tags (Plasmid A), VL on kappa CL (Plasmid C); also called H: APFF & L: NDH S52T

What was measured:
[1] = target: T1, recombinant human DLL4 (Cat# 1506-D4/CF, R&D Systems) (human, UniProt Q9NR61 27-529); assay: ELISA, DLL4 coated, Fab 100 nM
T1 construct: Bought protein; also called hDLL4; rHuman DLL4

[2] = target: T1, recombinant human DLL4 (Cat# …); assay: ELISA, DLL4 coated, Fab 75 nM
[3] = target: T1, recombinant human DLL4 (Cat# …); assay: ELISA, DLL4 coated, Fab 50 nM
Protocol: (§1) The plate was blocked by adding 1% BSA in Tris-buffered Saline Tween (TBST) and incubating for 1 hour at room temperature followed by washing 2 times with 150 μl TBST. A Fab antibody was serially diluted in 1% BSA in PBS. A 50 μl aliquot of each serial dilution was added, in triplicate, to each well and the plate was incubated for 1 hour at room temperature followed by washing 2 times with TBST. 50 μl of either goat anti-human kappa HRP conjugated secondary antibody (Cat # A7164-1 mL, Sigma-Aldrich) or goat anti-human lambda HRP conjugated secondary antibody (Cat # L1645-1 ml, Sigma-Aldrich), diluted 1:1000 in 1% BSA in PBS, was added to each well and the plate was incubated for 30 minutes at room temperature followed by washing 3 times with 200 μl TBST. Finally, 50 μl TMB one-component reagent (Cat # TMBW-1000-01, BioFax) was added and allowed to develop for 2 minutes at room temperature. The reaction was immediately halted by the addition of 50 μl 0.5M H₂SO₄ and the absorbance at 450 nm was measured using an ELISA plate reader.

[4] = target: T1, recombinant human DLL4 (Cat# …); assay: ELISA, DLL4 coated, Fab 0.63 nM
Protocol: as §1

[5] = target: T1, recombinant human DLL4 (Cat# …); assay: ELISA, DLL4 coated, Fab 0.31 nM
Protocol: as §1

[6] = target: T1, recombinant human DLL4 (Cat# …); assay: ELISA, DLL4 coated, Fab 2.5 nM
Protocol: as §1

[7] = target: T1, recombinant human DLL4 (Cat# …); assay: ELISA, DLL4 coated, Fab 1.3 nM
Protocol: as §1

[8] = target: T1, recombinant human DLL4 (Cat# …); assay: ELISA, DLL4 coated, Fab 5 nM
Protocol: as §1

[9] = target: T1, recombinant human DLL4 (Cat# …); assay: ELISA, DLL4 coated, Fab 20 nM
Protocol: as §1

[10] = target: T1, recombinant human DLL4 (Cat# …); assay: ELISA, DLL4 coated, Fab 0.16 nM
Protocol: as §1

[11] = target: T1, recombinant human DLL4 (Cat# …); assay: ELISA, DLL4 coated, Fab 10 nM
Protocol: as §1

[12] = target: T1, recombinant human DLL4 (Cat# …); assay: ELISA, DLL4 coated, Fab 100 nM; remark: listed apart in the source
Protocol: as §1

[13] = target: T1, recombinant human DLL4 (Cat# …); assay: ELISA, DLL4 coated, Fab 3.125 nM
Protocol: as §1

[14] = target: T1, recombinant human DLL4 (Cat# …); assay: ELISA, DLL4 coated, Fab 12.5 nM
Protocol: as §1

[15] = target: T1, recombinant human DLL4 (Cat# …); assay: ELISA, DLL4 coated, Fab 50 nM; remark: listed apart in the source
Protocol: as §1

[16] = target: T1, recombinant human DLL4 (Cat# …); assay: ELISA, DLL4 coated, Fab 25 nM
Protocol: as §1

[17] = target: T1, recombinant human DLL4 (Cat# …); assay: ELISA, DLL4 coated, Fab 6.25 nM
Protocol: as §1

Row | Binder | ELISA absorbance at 450 nm [1] | ELISA absorbance at 450 nm [2] | ELISA absorbance at 450 nm [3] | ELISA absorbance at 450 nm [4] | ELISA absorbance at 450 nm [5] | ELISA absorbance at 450 nm [6] | ELISA absorbance at 450 nm [7] | ELISA absorbance at 450 nm [8] | ELISA absorbance at 450 nm [9] | ELISA absorbance at 450 nm [10] | ELISA absorbance at 450 nm [11] | ELISA absorbance at 450 nm [12] | ELISA absorbance at 450 nm [13] | ELISA absorbance at 450 nm [14] | ELISA absorbance at 450 nm [15] | ELISA absorbance at 450 nm [16] | ELISA absorbance at 450 nm [17]
1 | B1 | 0.072 A450 | 0.072 A450 | 0.06 A450 | – | – | – | – | – | – | – | – | – | – | – | – | – | –
2 | B2 | – | – | – | 0.227 A450 | 1.11 A450 | 0.592 A450 | 0.078 A450 | 1.27 A450 | 1.11 A450 | 0.875 A450 | 0.875 A450 | – | – | – | – | – | –
3 | B3 | – | – | – | 0.115 A450 | 0.648 A450 | 0.358 A450 | 0.055 A450 | 0.724 A450 | 0.648 A450 | 0.506 A450 | 0.506 A450 | – | – | – | – | – | –
4 | B4 | – | – | – | – | – | – | – | – | – | – | – | 0.608 A450 | 0.089 A450 | 0.167 A450 | 0.416 A450 | 0.238 A450 | 0.109 A450
5 | B5 | – | – | – | 1.01 A450 | 2.29 A450 | 1.98 A450 | 0.402 A450 | 2.33 A450 | 2.29 A450 | 2.17 A450 | 2.17 A450 | – | – | – | – | – | –
6 | B6 | – | – | – | 1.37 A450 | 2.4 A450 | 2.15 A450 | 0.653 A450 | 2.48 A450 | 2.4 A450 | 2.35 A450 | 2.35 A450 | – | – | – | – | – | –
7 | B7 | – | – | – | – | – | – | – | – | – | – | – | 0.653 A450 | 0.099 A450 | 0.215 A450 | 0.49 A450 | 0.323 A450 | 0.13 A450
